T1: Drosha (residues 353-1372) (human, UniProt Q9NRR4 353-1372)
T1 construct: Drosha (RNase III), human, residues 353-1372 (CED, two RIIID domains, dsRBD); also called the Drosha chain of MP^Heme, MP^Apo, MP^C352S, MP^ΔHBR and MP^CTT
T1 sequence (looked up): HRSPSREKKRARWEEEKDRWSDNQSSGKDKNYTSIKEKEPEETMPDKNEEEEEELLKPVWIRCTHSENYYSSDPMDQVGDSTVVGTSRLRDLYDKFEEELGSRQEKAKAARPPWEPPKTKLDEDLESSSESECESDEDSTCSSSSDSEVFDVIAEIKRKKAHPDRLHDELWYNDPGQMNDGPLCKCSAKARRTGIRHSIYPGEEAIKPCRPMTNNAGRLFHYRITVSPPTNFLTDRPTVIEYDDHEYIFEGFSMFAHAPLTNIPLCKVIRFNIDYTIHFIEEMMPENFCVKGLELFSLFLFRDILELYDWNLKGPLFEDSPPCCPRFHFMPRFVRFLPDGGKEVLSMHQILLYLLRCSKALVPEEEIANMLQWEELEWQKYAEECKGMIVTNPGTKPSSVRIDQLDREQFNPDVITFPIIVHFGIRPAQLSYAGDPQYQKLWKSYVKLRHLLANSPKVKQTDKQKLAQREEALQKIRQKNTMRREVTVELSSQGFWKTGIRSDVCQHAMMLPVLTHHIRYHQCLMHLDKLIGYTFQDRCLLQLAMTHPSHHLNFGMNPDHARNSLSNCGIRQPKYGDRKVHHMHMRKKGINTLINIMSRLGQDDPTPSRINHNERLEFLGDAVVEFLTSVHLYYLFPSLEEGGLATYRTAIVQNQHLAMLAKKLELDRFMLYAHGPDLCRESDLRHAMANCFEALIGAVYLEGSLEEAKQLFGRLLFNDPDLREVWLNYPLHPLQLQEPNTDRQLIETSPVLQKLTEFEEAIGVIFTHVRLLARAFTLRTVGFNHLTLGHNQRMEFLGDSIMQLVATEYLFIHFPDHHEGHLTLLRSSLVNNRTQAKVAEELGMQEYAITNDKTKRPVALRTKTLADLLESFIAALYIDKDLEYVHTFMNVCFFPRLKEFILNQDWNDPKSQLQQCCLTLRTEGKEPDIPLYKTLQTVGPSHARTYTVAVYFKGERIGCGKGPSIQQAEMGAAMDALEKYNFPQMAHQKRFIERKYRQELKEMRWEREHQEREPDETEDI


Legend:
[1] = target: the molecule itself; experiment: SEC-MALS; isolated DGCR8; Superdex 200 Increase 10/300; 20 mM Tris pH 8.0, 750 mM NaCl, 1 mM TCEP, 10% glycerol; wild-type sample heme-deficient (Apo); heme-saturated samples inconclusive and not reported
[2] = target: the molecule itself; experiment: AUC; sedimentation velocity of isolated DGCR8; 0.1-1 mg/mL; 20 mM Tris pH 8.0, 500 mM NaCl, 1 mM TCEP; 142,000 x g, about 16 h; wild-type sample heme-saturated
[3] = target: T1, Drosha (residues 353-1372); experiment: SEC-MALS; purified co-expressed Drosha/DGCR8 complex; Superdex 200 Increase 10/300; 20 mM Tris pH 8.0, 750 mM NaCl, 1 mM TCEP, 10% glycerol; conditions: both partners purified
[4] = target: the molecule itself; experiment: AUC; sedimentation velocity of purified co-expressed Drosha/DGCR8 complex; 0.1-1 mg/mL; 20 mM Tris pH 8.0, 500 mM NaCl, 1 mM TCEP; 72,400 x g, about 16 h
[5] = target: the molecule itself; experiment: SEC-MALS; purified co-expressed Drosha/DGCR8 complex; Superdex 200 Increase 10/300; 20 mM Tris pH 8.0, 750 mM NaCl, 1 mM TCEP, 10% glycerol

Row | Binder | stoichiometry N [1] | stoichiometry N [2] | stoichiometry N [4] | other results
1 | DGCR8 (residues 223-751), isolated, wild type (domain or fragment, human, UniProt Q8WYQ5 223-751, looked up, DGCR8, human, residues 223-751 (HBR, two dsRBDs, C-terminal tail); also called DGCR8^Heme; DGCR8^Apo; source: E. coli BL21 (DE3) Rosetta, pET21, purified (Ni-NTA, cation exchange, size exclusion); 5 uM hemin Cl in the media for heme-saturated protein) AIVQRDRVDEEALNFPYEDDFDNDVDALLEEGLCAPKKRRTEEKYGGDSDHPSDGETSVQPMMTKIKTVLKSRGRPPTEPLPDGWIMTFHNSGVPVYLHRESRVVTWSRPYFLGTGSIRKHDPPLSSIPCLHYKKMKDNEEREQSSDLTPSGDVSPVKPLSRSAELEFPLDEPDSMGADPGPPDEKDPLGAEAAPGALGQVKAKVEVCKDESVDLEEFRSYLEKRFDFEQVTVKKFRTWAERRQFNREMKRKQAESERPILPANQKLITLSVQDAPTKKEFVINPNGKSEVCILHEYMQRVLKVRPVYNFFECENPSEPFGASVTIDGVTYGSGTASSKKLAKNKAARATLEILIPDFVKQTSEEKPKDSEELEYFNHISIEDSRVYELTSKAGLLSPYQILHECLKRNHGMGDTSIKFEVVPGKNQKSEYVMACGKHTVRGWCKNKRVGKQLASQKILQLLHPHVKNWGSLLRMYGRESSKMVKQETSDKSVIELQQYAKKNKPNLHILSKLQEEMKRLAEEREETRK | 2 | 2 | – | –
2 | DGCR8^ΔHBR (residues 489-751), co-expressed with Drosha (domain or fragment, human, UniProt Q8WYQ5 489-751, looked up, DGCR8, human, residues 489-751 (tandem dsRBDs and C-terminal tail, no HBR); One copy per Drosha in MP^ΔHBR; also called DGCR8 lacking the HBR; the DGCR8 chain of MP^ΔHBR) LITLSVQDAPTKKEFVINPNGKSEVCILHEYMQRVLKVRPVYNFFECENPSEPFGASVTIDGVTYGSGTASSKKLAKNKAARATLEILIPDFVKQTSEEKPKDSEELEYFNHISIEDSRVYELTSKAGLLSPYQILHECLKRNHGMGDTSIKFEVVPGKNQKSEYVMACGKHTVRGWCKNKRVGKQLASQKILQLLHPHVKNWGSLLRMYGRESSKMVKQETSDKSVIELQQYAKKNKPNLHILSKLQEEMKRLAEEREETRK | – | – | – | stoichiometry N [3]: 1
3 | DGCR8 (residues 223-751) C352S, isolated (domain or fragment, human, UniProt Q8WYQ5 223-751, looked up, also called DGCR8^C352S; source: E. coli BL21 (DE3) Rosetta, pET21, purified (Ni-NTA, cation exchange, size exclusion)) AIVQRDRVDEEALNFPYEDDFDNDVDALLEEGLCAPKKRRTEEKYGGDSDHPSDGETSVQPMMTKIKTVLKSRGRPPTEPLPDGWIMTFHNSGVPVYLHRESRVVTWSRPYFLGTGSIRKHDPPLSSIPSLHYKKMKDNEEREQSSDLTPSGDVSPVKPLSRSAELEFPLDEPDSMGADPGPPDEKDPLGAEAAPGALGQVKAKVEVCKDESVDLEEFRSYLEKRFDFEQVTVKKFRTWAERRQFNREMKRKQAESERPILPANQKLITLSVQDAPTKKEFVINPNGKSEVCILHEYMQRVLKVRPVYNFFECENPSEPFGASVTIDGVTYGSGTASSKKLAKNKAARATLEILIPDFVKQTSEEKPKDSEELEYFNHISIEDSRVYELTSKAGLLSPYQILHECLKRNHGMGDTSIKFEVVPGKNQKSEYVMACGKHTVRGWCKNKRVGKQLASQKILQLLHPHVKNWGSLLRMYGRESSKMVKQETSDKSVIELQQYAKKNKPNLHILSKLQEEMKRLAEEREETRK | 2 | 2 | – | –
4 | DGCR8 (residues 223-751), wild type, co-expressed with Drosha (domain or fragment, human, UniProt Q8WYQ5 223-751, looked up, DGCR8, human, residues 223-751; Two copies per Drosha in the complex (heterotrimer); Heme-saturated in MP^Heme, heme-deficient in MP^Apo; also called DGCR8^Heme; DGCR8^Apo; source: MP^Apo separated from MP^Heme by repeated ion exchange) AIVQRDRVDEEALNFPYEDDFDNDVDALLEEGLCAPKKRRTEEKYGGDSDHPSDGETSVQPMMTKIKTVLKSRGRPPTEPLPDGWIMTFHNSGVPVYLHRESRVVTWSRPYFLGTGSIRKHDPPLSSIPCLHYKKMKDNEEREQSSDLTPSGDVSPVKPLSRSAELEFPLDEPDSMGADPGPPDEKDPLGAEAAPGALGQVKAKVEVCKDESVDLEEFRSYLEKRFDFEQVTVKKFRTWAERRQFNREMKRKQAESERPILPANQKLITLSVQDAPTKKEFVINPNGKSEVCILHEYMQRVLKVRPVYNFFECENPSEPFGASVTIDGVTYGSGTASSKKLAKNKAARATLEILIPDFVKQTSEEKPKDSEELEYFNHISIEDSRVYELTSKAGLLSPYQILHECLKRNHGMGDTSIKFEVVPGKNQKSEYVMACGKHTVRGWCKNKRVGKQLASQKILQLLHPHVKNWGSLLRMYGRESSKMVKQETSDKSVIELQQYAKKNKPNLHILSKLQEEMKRLAEEREETRK | – | – | 2 | –
5 | DGCR8 (residues 223-751) C352S, co-expressed with Drosha (domain or fragment, human, UniProt Q8WYQ5 223-751, looked up, also called DGCR8^C352S; the DGCR8 chain of MP^C352S) AIVQRDRVDEEALNFPYEDDFDNDVDALLEEGLCAPKKRRTEEKYGGDSDHPSDGETSVQPMMTKIKTVLKSRGRPPTEPLPDGWIMTFHNSGVPVYLHRESRVVTWSRPYFLGTGSIRKHDPPLSSIPSLHYKKMKDNEEREQSSDLTPSGDVSPVKPLSRSAELEFPLDEPDSMGADPGPPDEKDPLGAEAAPGALGQVKAKVEVCKDESVDLEEFRSYLEKRFDFEQVTVKKFRTWAERRQFNREMKRKQAESERPILPANQKLITLSVQDAPTKKEFVINPNGKSEVCILHEYMQRVLKVRPVYNFFECENPSEPFGASVTIDGVTYGSGTASSKKLAKNKAARATLEILIPDFVKQTSEEKPKDSEELEYFNHISIEDSRVYELTSKAGLLSPYQILHECLKRNHGMGDTSIKFEVVPGKNQKSEYVMACGKHTVRGWCKNKRVGKQLASQKILQLLHPHVKNWGSLLRMYGRESSKMVKQETSDKSVIELQQYAKKNKPNLHILSKLQEEMKRLAEEREETRK | – | – | 2 | stoichiometry N [5]: 2

— PMC5700927, “Heme enables proper positioning of Drosha and DGCR8 on primary microRNAs” (Nature Communications, 2017)
